Source: patent publication US8008547B2, “Glyphosate-N-acetyltransferase (GAT) genes” (E.I. duPont de Nemours, priority 2000, dated 2011)
Numbering of substitutions follows the chain as printed.

B1: SEQ ID NO: 493: GAT polypeptide (protein)
chain: MIEVKPINAEDTYELRHRILRPNQPIEVCMYETDLLRGAFHLGGFYGGKLISIASFHQAEHSDLQGQKQYQLRGMATLEGYRDQKAGSSLIRHAEQILRKRGADMLWCNARTSASGYYKKLGFSEQGEIFETPPVGPHILMYKRIT
modifications: 4_1B10
notes: GAT polypeptide
B2: SEQ ID NO: 502: GAT polypeptide (protein)
chain: B1 chain with I2L, R18K, I26L, S89T, R92K, I129V, I145L
modifications: 6_1H4
notes: GAT polypeptide
B3: SEQ ID NO: 500: GAT polypeptide (protein)
chain: B1 chain with I2L, R18K, I26L, G47R, D63E, I129V, I145L
modifications: 6_1F1
notes: GAT polypeptide
B4: SEQ ID NO: 498: GAT polypeptide (protein)
chain: B1 chain with R18K, I26L, G47R, I129V
modifications: 6_1D5
notes: GAT polypeptide
B5: SEQ ID NO: 501: GAT polypeptide (protein)
chain: B1 chain with I2L, R18K, I26L, Q96E, I129V, E131D, R144K
modifications: 6_1H10
notes: GAT polypeptide
B6: SEQ ID NO: 496: GAT polypeptide (protein)
chain: B1 chain with I2L, R18K, I145L
modifications: 5_2F10
notes: GAT polypeptide
B7: SEQ ID NO: 497: GAT polypeptide (protein)
chain: B1 chain with I2L, R18K, I26L, G47R, K119R, I129V, I145L
modifications: 6_1A11
notes: GAT polypeptide
B8: SEQ ID NO: 494: GAT polypeptide (protein)
chain: B1 chain with I26L
modifications: 5_2B3
notes: GAT polypeptide
B9: SEQ ID NO: 499: GAT polypeptide (protein)
chain: B1 chain with R18K, I26L, G47R, D83E, I129V, I145L
modifications: 6_1F11
notes: GAT polypeptide
B10: SEQ ID NO: 495: GAT polypeptide (protein)
chain: MLXVKPINAEDTYELRHKILRPNQPXEVCMYEXDLLRGAFHLGGFYRGKLISIASFHQAEHSDLQGQKQYQLRGMATLEGYRDQKAGSSLIKHAEQILRERGADMLWCNARTSASGYYKKLGFSEQGEVFDTPPVGPHILMYKRLT
modifications: X: residue not identified in the source; ends and bridges not checked
notes: GAT polypeptide
B11: SEQ ID NO: 486: GAT polypeptide (protein)
chain: MLEVKPINAEDTYELRHRILRPNQPIEACMYESDLLRGAFHLGGYYRGKLISIASFHQAEHSELQGQKQYQLRGMATLEGYREQKAGSSLVKHAEEILRKRGADLLWCNARTSASGYYKKLGFSEQGEIFETPPVGPHILMYKRIT
modifications: 3_11A10
notes: GAT polypeptide
B12: SEQ ID NO: 504: GAT polypeptide (protein)
chain: B11 chain with L2I, I19V, I26L, A28V, S33T, V91I, I129V, I145L
modifications: 8_1G2
notes: GAT polypeptide
B13: SEQ ID NO: 503: GAT polypeptide (protein)
chain: B1 chain with I26L, G47R, D83E, R92K, Q96E, M105L, E131D
modifications: 8_1F8
notes: GAT polypeptide
B14: SEQ ID NO: 490: GAT polypeptide (protein)
chain: B11 chain with S62P, V91I, I129V
modifications: 3_6B1
notes: GAT polypeptide
B15: SEQ ID NO: 488: GAT polypeptide (protein)
chain: B11 chain with R18K, I26L, A28V, S33T, R47G, V91I
modifications: 3_15B2
notes: GAT polypeptide
B16: SEQ ID NO: 489: GAT polypeptide (protein)
chain: B11 chain with L2I, V91I
modifications: 3_6A10
notes: GAT polypeptide
B17: SEQ ID NO: 487: GAT polypeptide (protein)
chain: B11 chain with Y45F, V91I, I145L
modifications: 3_14F6
notes: GAT polypeptide
B18: SEQ ID NO: 491: GAT polypeptide (protein)
chain: B11 chain with R47G, E63D, V91I
modifications: 3_7F9
notes: GAT polypeptide
B19: SEQ ID NO: 505: GAT polypeptide (protein)
chain: B11 chain with R18K, A28V, S33T, V91I, K92R, E131D
modifications: 8_1G3
notes: GAT polypeptide
B20: SEQ ID NO: 506: GAT polypeptide (protein)
chain: B11 chain with A28V, S33T, Y45F, V91I, L105M, I145L
modifications: 8_1H7
notes: GAT polypeptide
B21: SEQ ID NO: 507: GAT polypeptide (protein)
chain: B10 chain with X3E, X26L, X33T, F45Y, D83E, K92R, Q96E, E100K, M105L
modifications: 8_1H9
notes: GAT polypeptide
B22: SEQ ID NO: 492: GAT polypeptide (protein)
chain: B11 chain with A28V, V91I
modifications: 3_8G11
notes: GAT polypeptide
B23: SEQ ID NO: 485: GAT polypeptide (protein)
chain: MIEVKPINAEDTYELRHKILRPNQPIEACMYESDLLRGSFHLGGFYRGQLISIASFHQAEHSDLEGQKQYQLRGMATLEGYRDQKAGSSLIKHAEEILRKRGADLLWCNARTSAAGYYKRLGFSEQGEIFDTPPVGPHILMYKKIT
modifications: 1_6H6
notes: GAT polypeptide
B24: SEQ ID NO: 279: GAT polypeptide (protein)
chain: MIEVKPINAEDTYEIRHRILRPNQPLEACKYETDLLGGTFHLGGYYRGKLVSIASFHQAEHPELEGQKQYQLRGMATLEGYREQKAGSTLIRHAEELLRKKGADLLWCNARTSASGYYKKLGFSEQGEVYDIPPTGPHILMYKKLT
modifications: 10_3G5
notes: GAT polypeptide
B25: SEQ ID NO: 509: GAT polypeptide (protein)
chain: B24 chain with K30M, V51I, P62S, S113F, A114V, K119E, T135I, H138Y, K143E
modifications: GAT1_24G3
notes: GAT polypeptide
B26: SEQ ID NO: 511: GAT polypeptide (protein)
chain: B24 chain with K30M, V51I, A114V, K119E, T135I
modifications: GAT1_32G1
notes: GAT polypeptide
B27: SEQ ID NO: 508: GAT polypeptide (protein)
chain: B24 chain with V51I, Q58N, P62S, A114V, T135I
modifications: GAT1_21F12
notes: GAT polypeptide
B28: SEQ ID NO: 282: GAT polypeptide (protein)
chain: B24 chain with T39A, V51I, E128G, T135V
modifications: 10_8C6
notes: GAT polypeptide
B29: SEQ ID NO: 512: GAT polypeptide (protein)
chain: B24 chain with V51I, Q58N, P62S, A114V, T135I
modifications: GAT2_15G8
notes: GAT polypeptide
B30: SEQ ID NO: 280: GAT polypeptide (protein)
chain: B24 chain with K30M
modifications: 10_4H7
notes: GAT polypeptide
B31: SEQ ID NO: 281: GAT polypeptide (protein)
chain: B24 chain with F40L, T135V
modifications: 10_6D11
notes: GAT polypeptide
B32: SEQ ID NO: 514: GAT polypeptide (protein)
chain: B24 chain with K30M, V51I, P62S, A114V, E128G, T135I
modifications: GAT2_21F1
notes: GAT polypeptide
B33: SEQ ID NO: 513: GAT polypeptide (protein)
chain: B24 chain with K30M, V51I, A114V, K119E, Y130C, T135I
modifications: GAT2_19H8
notes: GAT polypeptide
B34: SEQ ID NO: 510: GAT polypeptide (protein)
chain: B24 chain with K30M, V51I, P62S, A114V, E128G, Y130C, T135I, T146A
modifications: GAT1_29G1
notes: GAT polypeptide

test: Standard protocol for determination of kcat and KM (continuous spectrophotometric assay, Acetyl CoA hydrolysis at 235 nm); assay type: biochemical; conditions: purified protein; about 23° C.; 20 mM HEPES pH 6.8, 10% ethylene glycol, 0.2 mM acetyl CoA
How it was run: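 KM from initial rates over 0.125–10 mM glyphosate, fitted by Lineweaver-Burke transformation of Michaelis-Menten; kcat/KM computed as kcat divided by KM. Continuous spectrophotometric read of acetyl-CoA hydrolysis at 235 nm.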

Molecule	Kcat [s⁻¹]
B1	1.285
B2	1.432
B3	1.164
B4	0.7153
B5	0.2835
B6	0.912
B7	0.759
B8	0.9458
B9	1.7627
B10	1.257
B11	2.2568
B12	1.124
B13	1.381
B14	4.3847
B15	1.7355
B16	2.108
B17	3.1405

Molecule	Kcat [s⁻¹]
B18	3.2258
B19	1.815
B20	1.6873
B21	1.306
B22	1.652
B23	4.57
B24	1.46
B25	0.0817
B26	0.075
B27	0.09
B28	0.362
B29	0.075
B30	1.87
B31	1.04
B32	0.07
B33	0.0683
B34	0.103

same assay, conditions: purified protein; about 23° C.; pH 6.8; 0.2 mM acetyl CoA; glyphosate 0.125 to 10 mM

Molecule	Km [µM]
B11	170
B14	430
B16	660
B17	250
B18	290
B23	1050
B24	2000
B25	3800
B26	3300
B27	4600
B28	700
B29	2800
B30	1700
B31	1200
B32	3000
B33	2800
B34	4000
